US20130064834A1 (published 2013)

B1: H1M300N (antibody, V domains shown)
VH: EMQLVESGGGLVQPGGSLRLSCAASGFTFSSHWMKWVRQAPGKGLEWVANINQDGSEKYYVDSVKGRFTISRDNAKNSLFLQMNSLRAEDTAVYYCARDIVLMVYDMDYYYYGMDVWGQGTTVTVSS
VL: not shown
notes: Fully human version made in CHO cells
B2: H1H316P (antibody, V domains shown)
VH: EVQLVESGGGLVQPGGSLRLSCAASGFTFNNYAMNWVRQAPGKGLDWVSTISGSGGTTNYADSVKGRFIISRDSSKHTLYLQMNSLRAEDTAVYYCAKDSNWGNFDLWGRGTLVTVSS
VL: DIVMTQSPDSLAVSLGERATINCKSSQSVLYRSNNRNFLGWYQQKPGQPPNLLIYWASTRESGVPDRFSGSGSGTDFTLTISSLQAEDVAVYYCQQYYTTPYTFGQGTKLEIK
notes: Fully human mAb made in CHO cells; also called mAb316P

What was measured:
hPCSK9(R194E) = target: T1, hPCSK9(R194E) (human, UniProt Q8NBP7 31-692); test: SPR, mAb captured, 25C;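 further: antibodies held on a sensor chip bearing chemically coupled F(ab′)2 anti-human IgG as the capture surface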
T1 construct: mmh-tagged variant hPCSK9
Description: (§1) Each selected antibody was captured on a F(ab′)2 anti-hIgG surface created through direct chemical coupling to a BIACORE™ chip to form a captured antibody surface.

hPCSK9(S147F) = target: T2, hPCSK9(S147F) (human, UniProt Q8NBP7 31-692); test: SPR, mAb captured, 25C;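 further: antibodies held on a sensor chip bearing chemically coupled F(ab′)2 anti-human IgG as the capture surface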
T2 construct: mmh-tagged variant hPCSK9
Description: as §1

hPCSK9(D343R) = target: T3, hPCSK9(D343R) (human, UniProt Q8NBP7 31-692); test: SPR, mAb captured, 25C;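 further: antibodies held on a sensor chip bearing chemically coupled F(ab′)2 anti-human IgG as the capture surface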
T3 construct: mmh-tagged variant hPCSK9
Description: as §1

hPCSK9(E159R) = target: T4, hPCSK9(E159R) (human, UniProt Q8NBP7 31-692); test: SPR, mAb captured, 25C;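 further: antibodies held on a sensor chip bearing chemically coupled F(ab′)2 anti-human IgG as the capture surface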
T4 construct: mmh-tagged variant hPCSK9
Description: as §1

hPCSK9(P70A) = hPCSK9(P70A) (human, UniProt Q8NBP7 31-692); test: SPR, mAb captured, 25C
Description: as §1

hPCSK9(T162R) = target: T5, hPCSK9(T162R) (human, UniProt Q8NBP7 31-692); test: SPR, mAb captured, 25C
T5 construct: mmh-tagged variant hPCSK9
Description: as §1

hPCSK9(E366K) = target: T6, hPCSK9(E366K) (human, UniProt Q8NBP7 31-692); test: SPR, mAb captured, 25C
T6 construct: mmh-tagged variant hPCSK9
Description: as §1

hPCSK9(D129G) = target: T7, hPCSK9(D129G) (human, UniProt Q8NBP7 31-692); test: SPR, mAb captured, 25C
T7 construct: mmh-tagged variant hPCSK9
Description: as §1

hPCSK9(P70A, S147F) = hPCSK9(P70A, S147F) (human, UniProt Q8NBP7 31-692); test: SPR, mAb captured, 25C
Description: as §1

hPCSK9(R215H) = target: T8, hPCSK9(R215H) (human, UniProt Q8NBP7 31-692); test: SPR, mAb captured, 25C
T8 construct: mmh-tagged variant hPCSK9
Description: as §1

hPCSK9(D374Y)-mmh [1] = target: T9, hPCSK9(D374Y)-mmh (human, UniProt Q8NBP7 31-692); test: SPR, mAb captured, 25C
T9 construct: also called hPCSK(D374Y)-mmh
Description: as §1

hPCSK9(S127R) [2] = target: T10, hPCSK9(S127R) (human, UniProt Q8NBP7 31-692); test: SPR, mAb captured, 25C
T10 construct: mmh-tagged variant hPCSK9
Description: as §1

hPCSK9(D192R) [3] = target: T11, hPCSK9(D192R) (human, UniProt Q8NBP7 31-692); test: SPR, mAb captured, 25C
T11 construct: mmh-tagged variant hPCSK9
Description: as §1

hPCSK9(D238R) [4] = target: T12, hPCSK9(D238R) (human, UniProt Q8NBP7 31-692); test: SPR, mAb captured, 25C
T12 construct: mmh-tagged variant hPCSK9
Description: as §1

hPCSK9(A341R) = target: T13, hPCSK9(A341R) (human, UniProt Q8NBP7 31-692); test: ELISA, mAb coated, variant 0-5 nM
T13 construct: mmh-tagged variant hPCSK9
Protocol: (§2) Anti-PCSK9 mAbs were coated on a 96-well plate overnight at 4° C.

hPCSK9(S127R) [5] = target: T10, hPCSK9(S127R); test: ELISA, mAb coated, variant 0-5 nM
Protocol: as §2

hPCSK9(D192R) [6] = target: T11, hPCSK9(D192R); test: ELISA, mAb coated, variant 0-5 nM
Protocol: as §2

hPCSK9(E366K, V380M) = target: T14, hPCSK9(E366K, V380M) (human, UniProt Q8NBP7 31-692); test: ELISA, mAb coated, variant 0-5 nM
T14 construct: mmh-tagged variant hPCSK9
Protocol: as §2

hPCSK9(D238R) [7] = target: T12, hPCSK9(D238R); test: ELISA, mAb coated, variant 0-5 nM
Protocol: as §2

[8] = target: rat (Rattus norvegicus) PCSK9, myc-myc-his tagged (rat (Rattus norvegicus), UniProt P59996 31-691); test: cell-based or functional assay
[9] = target: cynomolgus monkey (Macaca fascicularis) PCSK9, myc-myc-his tagged (cynomolgus monkey (Macaca fascicularis), UniProt A8T662 31-692 (Macaca nemestrina entry), limits assumed); test: cell-based or functional assay
Human PCSK9-myc-myc-his = Human PCSK9-myc-myc-his (human, UniProt Q8NBP7 31-692); test: cell-based or functional assay
hPCSK9(D374Y)-mmh [10] = target: T9, hPCSK9(D374Y)-mmh; test: cell-based or functional assay
[11] = target: mouse PCSK9, myc-myc-his tagged (mouse, UniProt Q80W65 35-694); test: cell-based or functional assay
[12] = target: T15, his-tagged Syrian golden hamster (Mesocricetus auratus) PCSK9 (Syrian golden hamster (Mesocricetus …)); test: cell-based or functional assay
T15 chain: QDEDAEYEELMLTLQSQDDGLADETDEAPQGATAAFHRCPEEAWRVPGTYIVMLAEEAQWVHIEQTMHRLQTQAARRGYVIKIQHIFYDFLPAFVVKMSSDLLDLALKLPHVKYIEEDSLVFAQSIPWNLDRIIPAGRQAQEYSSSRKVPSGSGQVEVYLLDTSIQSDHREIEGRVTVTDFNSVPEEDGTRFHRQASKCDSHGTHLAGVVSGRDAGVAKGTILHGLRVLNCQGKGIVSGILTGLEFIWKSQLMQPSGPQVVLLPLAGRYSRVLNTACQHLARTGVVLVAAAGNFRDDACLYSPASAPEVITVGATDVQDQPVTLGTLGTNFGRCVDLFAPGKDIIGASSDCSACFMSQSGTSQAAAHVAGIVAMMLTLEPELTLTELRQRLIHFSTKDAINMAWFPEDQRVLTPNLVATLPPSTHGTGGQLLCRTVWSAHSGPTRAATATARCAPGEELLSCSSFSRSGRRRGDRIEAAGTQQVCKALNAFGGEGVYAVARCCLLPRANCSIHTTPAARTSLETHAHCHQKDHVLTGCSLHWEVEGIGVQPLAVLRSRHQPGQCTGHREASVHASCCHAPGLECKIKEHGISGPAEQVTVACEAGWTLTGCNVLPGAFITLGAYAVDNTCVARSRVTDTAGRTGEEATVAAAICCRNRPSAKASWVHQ

hPCSK9(D374Y)-mmh [13] = target: T9, hPCSK9(D374Y)-mmh; test: competition ELISA vs EGF-A-hFc, pH 5.5
Protocol: Briefly, hLDLR-ecto, hLDLR EGF-A-hFc or hLDLR EGF-AB-hFc, each at 2 μg/ml, was coated on a 96-well plate in PBS buffer overnight at 4° C., and nonspecific binding sites blocked with BSA. […] The equilibrated sample solutions were transferred to receptor or receptor fragment coated plates.

Sequence of mouse PCSK9, myc-myc-his tagged (Q80W65 35-694 limits assumed): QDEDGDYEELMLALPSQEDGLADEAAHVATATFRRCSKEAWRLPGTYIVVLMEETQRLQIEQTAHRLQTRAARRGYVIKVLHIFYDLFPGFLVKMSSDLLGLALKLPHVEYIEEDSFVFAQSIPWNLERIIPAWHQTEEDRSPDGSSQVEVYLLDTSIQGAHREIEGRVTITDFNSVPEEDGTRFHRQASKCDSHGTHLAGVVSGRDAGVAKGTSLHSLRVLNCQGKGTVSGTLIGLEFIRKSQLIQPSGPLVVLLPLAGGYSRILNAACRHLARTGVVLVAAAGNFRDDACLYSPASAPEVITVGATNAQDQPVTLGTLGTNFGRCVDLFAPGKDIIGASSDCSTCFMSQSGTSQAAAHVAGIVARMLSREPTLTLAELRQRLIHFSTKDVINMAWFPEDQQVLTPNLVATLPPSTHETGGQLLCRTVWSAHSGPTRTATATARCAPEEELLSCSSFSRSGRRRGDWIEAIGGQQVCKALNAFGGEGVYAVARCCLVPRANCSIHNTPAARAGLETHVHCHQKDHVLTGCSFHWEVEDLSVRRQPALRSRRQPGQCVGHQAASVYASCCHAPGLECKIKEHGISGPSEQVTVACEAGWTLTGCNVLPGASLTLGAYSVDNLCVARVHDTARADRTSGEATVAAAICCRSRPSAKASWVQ
Sequence of cynomolgus monkey (Macaca fascicularis) PCSK9, myc-myc-his tagged (A8T662 31-692 limits assumed): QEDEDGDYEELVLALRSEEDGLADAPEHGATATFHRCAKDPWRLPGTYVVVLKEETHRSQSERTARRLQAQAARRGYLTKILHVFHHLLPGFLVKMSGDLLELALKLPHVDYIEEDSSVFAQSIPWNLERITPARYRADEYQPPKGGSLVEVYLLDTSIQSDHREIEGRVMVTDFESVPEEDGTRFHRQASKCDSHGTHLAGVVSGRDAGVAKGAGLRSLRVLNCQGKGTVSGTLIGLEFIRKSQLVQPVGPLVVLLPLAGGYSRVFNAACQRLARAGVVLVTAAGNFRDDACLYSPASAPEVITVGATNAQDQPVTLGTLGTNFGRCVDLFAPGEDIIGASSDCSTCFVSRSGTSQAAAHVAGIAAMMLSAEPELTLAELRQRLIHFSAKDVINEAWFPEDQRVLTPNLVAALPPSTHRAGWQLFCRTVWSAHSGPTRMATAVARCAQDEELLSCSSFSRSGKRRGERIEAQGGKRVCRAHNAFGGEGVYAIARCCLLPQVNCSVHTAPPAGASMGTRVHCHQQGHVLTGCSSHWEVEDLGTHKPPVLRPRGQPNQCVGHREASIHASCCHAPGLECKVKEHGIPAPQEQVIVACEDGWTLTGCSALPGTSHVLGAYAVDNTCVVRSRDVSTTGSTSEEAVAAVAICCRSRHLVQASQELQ
Sequence of rat (Rattus norvegicus) PCSK9, myc-myc-his tagged (P59996 31-691 limits assumed): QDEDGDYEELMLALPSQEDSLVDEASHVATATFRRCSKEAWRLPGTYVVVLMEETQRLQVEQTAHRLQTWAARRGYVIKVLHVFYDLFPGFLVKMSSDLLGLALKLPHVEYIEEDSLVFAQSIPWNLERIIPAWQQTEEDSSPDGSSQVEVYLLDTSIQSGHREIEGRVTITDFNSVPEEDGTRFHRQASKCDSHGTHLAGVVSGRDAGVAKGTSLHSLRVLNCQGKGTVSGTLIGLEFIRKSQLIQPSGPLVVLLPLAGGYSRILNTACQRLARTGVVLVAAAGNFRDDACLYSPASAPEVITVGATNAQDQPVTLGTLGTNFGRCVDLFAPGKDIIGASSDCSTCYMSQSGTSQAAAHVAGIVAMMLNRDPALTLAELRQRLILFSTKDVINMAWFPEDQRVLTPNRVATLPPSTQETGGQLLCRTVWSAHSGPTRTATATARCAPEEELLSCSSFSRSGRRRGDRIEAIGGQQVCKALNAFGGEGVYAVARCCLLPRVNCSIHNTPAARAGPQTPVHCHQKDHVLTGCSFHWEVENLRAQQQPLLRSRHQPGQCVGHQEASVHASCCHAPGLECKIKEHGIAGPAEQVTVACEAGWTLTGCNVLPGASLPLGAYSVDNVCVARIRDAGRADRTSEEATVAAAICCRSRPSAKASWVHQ

Binder	Kd (hPCSK9(R194E)) [nM]	T1/2 (hPCSK9(R194E)) [min]	Kd (hPCSK9(S147F)) [nM]	T1/2 (hPCSK9(S147F)) [min]	Kd (hPCSK9(D343R)) [nM]	T1/2 (hPCSK9(D343R)) [min]	Kd (hPCSK9(E159R)) [nM]	T1/2 (hPCSK9(E159R)) [min]	Kd (hPCSK9(P70A)) [nM]	T1/2 (hPCSK9(P70A)) [min]	Kd (hPCSK9(T162R)) [nM]	T1/2 (hPCSK9(T162R)) [min]	Kd (hPCSK9(E366K)) [nM]	T1/2 (hPCSK9(E366K)) [min]	Kd (hPCSK9(D129G)) [nM]	T1/2 (hPCSK9(D129G)) [min]	Kd (hPCSK9(P70A, S147F)) [nM]	T1/2 (hPCSK9(P70A, S147F)) [min]	Kd (hPCSK9(R215H)) [nM]	T1/2 (hPCSK9(R215H)) [min]	other results
B1	0.65	129	9.07	24	1.18	89	0.82	94	1.68	80	0.58	140	36	2	1.4	88	7.87	24	1.03	98	Kd (hPCSK9(D374Y)-mmh [1]): 0.66 nM; T1/2 (hPCSK9(D374Y)-mmh [1]): 83 min; Kd (hPCSK9(S127R) [2]): 1.87 nM; T1/2 (hPCSK9(S127R) [2]): 110 min; Kd (hPCSK9(D192R) [3]): 0.75 nM; T1/2 (hPCSK9(D192R) [3]): 119 min; Kd (hPCSK9(D238R) [4]): 0.78 nM; T1/2 (hPCSK9(D238R) [4]): 123 min; OD (hPCSK9(A341R)): > 1.5 od; OD (hPCSK9(S127R) [5]): > 1.5 od; OD (hPCSK9(D192R) [6]): > 1.5 od; OD (hPCSK9(E366K, V380M)): 0.7 to 1.5 od; OD (hPCSK9(D238R) [7]): > 1.5 od; IC50, LDL uptake in HepG2 cells [8]: > 500 nM; IC50, LDL uptake in HepG2 cells [9]: 13.4 nM; IC50, LDL uptake in HepG2 cells (Human PCSK9-myc-myc-his): 12.6 nM; IC50, LDL uptake in HepG2 cells (hPCSK9(D374Y)-mmh [10]): 11 nM; IC50, LDL uptake in HepG2 cells [11]: > 500 nM; IC50, LDL uptake in HepG2 cells [12]: > 500 nM; IC50 (hPCSK9(D374Y)-mmh [13]): 3.46 nM
B2	0.38	71	1.29	32	7.88	6	6.96	5	1.42	32	0.98	43	2.92	13	1.27	36	1.18	34	0.86	41	Kd (hPCSK9(D374Y)-mmh [1]): 2.04 nM; T1/2 (hPCSK9(D374Y)-mmh [1]): 15 min; Kd (hPCSK9(S127R) [2]): 2.4 nM; T1/2 (hPCSK9(S127R) [2]): 36 min; Kd (hPCSK9(D192R) [3]): 1.35 nM; T1/2 (hPCSK9(D192R) [3]): 28 min; Kd (hPCSK9(D238R) [4]): 410 nM; T1/2 (hPCSK9(D238R) [4]): 1 min; OD (hPCSK9(A341R)): > 1.5 od; OD (hPCSK9(S127R) [5]): > 1.5 od; OD (hPCSK9(D192R) [6]): > 1.5 od; OD (hPCSK9(E366K, V380M)): > 1.5 od; OD (hPCSK9(D238R) [7]): < 0.7 od; IC50, LDL uptake in HepG2 cells [8]: 27.7 nM; IC50, LDL uptake in HepG2 cells [9]: 14.7 nM; IC50, LDL uptake in HepG2 cells (Human PCSK9-myc-myc-his): 14.1 nM; IC50, LDL uptake in HepG2 cells (hPCSK9(D374Y)-mmh [10]): 2.1 nM; IC50, LDL uptake in HepG2 cells [11]: 21.2 nM; IC50, LDL uptake in HepG2 cells [12]: 14.4 nM; IC50 (hPCSK9(D374Y)-mmh [13]): 1.12 nM
